Earlier results, collected in patent US6468965B1, “Pharmaceutical composition for oral administration of a mixture of chelating agents” (priority 2002, dated 2002).

Columns and labels:
Porphyromonas gingivalis = details: literature report, J. Biol. Chem. 2000
[1] = tested on: VEGF165-Mediated Angiogenesis; details: orally administered; literature report, Int. J. Cancer 2001
colon 26 carcinoma = details: orally administered; literature report, Nutrition and Cancer 2000

B1: lactoferrin (protein, UniProt P24627 20-708, looked up)
Lactotransferrin: APRKNVRWCTISQPEWFKCRRWQWRMKKLGAPSITCVRRAFALECIRAIAEKKADAVTLDGGMVFEAGRDPYKLRPVAAEIYGTKESPQTHYYAVAVVKKGSNFQLDQLQGRKSCHTGLGRSAGWIIPMGILRPYLSWTESLEPLQGAVAKFFSASCVPCIDRQAYPNLCQLCKGEGENQCACSSREPYFGYSGAFKCLQDGAGDVAFVKETTVFENLPEKADRDQYELLCLNNSRAPVDAFKECHLAQVPSHAVVARSVDGKEDLIWKLLSKAQEKFGKNKSRSFQLFGSPPGQRDLLFKDSALGFLRIPSKVDSALYLGSRYLTTLKNLRETAEEVKARYTRVVWCAVGPEEQKKCQQWSQQSGQNVTCATASTTDDCIVLVLKGEADALNLDGGYIYTAGKCGLVPVLAENRKSSKHSSLDCVLRPTEGYLAVAVVKKANEGLTWNSLKDKKSCHTAVDRTAGWNIPMGLIVNQTGSCAFDEFFSQSCAPGADPKSRLCALCAGDDQGLDKCVPNSKEKYYGYTGAFRCLAEDVGDVAFVKNDTVWENTNGESTADWAKNLNREDFRLLCLDGTRKPVTEAQSCHLAVAPNHAVVSRSDRAAHVKQVLLHQQALFGKNGKNCPDKFCLFKSETKNLLFNDNTECLAKLGGRPTYEEYLGTEYVTAIANLKKCSTSPLLEACAFLTR
notes: 80 kDa mammalian iron-chelating glycoprotein obtainable from the whey protein of cow's milk
action on growth of the bacteria responsible for gingivitis (Porphyromonas gingivalis): inhibiting action
effect on angiogenesis [1]: inhibiting angiogenesis
effect on the lung colonization of colon 26 carcinoma (colon 26 carcinoma): significant inhibiting effect
